Data on six molecules can be found in US20040258682A1.

The target of assay [1] is CD22, the LL2 antigen on the surface of Raji B-lymphoma cells (UniProt P20273). As to the kind of experiment: cell surface binding assay, calculated from ID50 values.
For assay [2] the target is unchanged. As to the kind of experiment: cell-based or functional assay.
Assay [3] shares this target. As to the kind of experiment: Raji cell binding assay.
Assay [4] has as its target WN, LL2 anti-idiotype antibody. Nature of the assay: WN competitive blocking assay, from ID50 against unmodified control F(ab′)2.
Assay [5] addresses WN, LL2 anti-idiotype antibody. As to the kind of experiment: WN competitive blocking assay, F(ab′)2 competing with mLL2. Also on record: unit not given beside the values.

As for “mLL2 F(ab′)2 fragment conjugated with dextran-DOX at the VK-appended carbohydrate”, the Immunoreactivity (%), cell binding in assay [1] is 41.9%.

Take mLL2 F(ab′)2 fragment: in assay [1], the Immunoreactivity (%), cell binding was 100%.

For murine LL2 monoclonal antibody, the rate of antibody internalization (Ke) by Raji cells in assay [2] was 0.107.

In the case of “DOX-LL2 (doxorubicin-dextran-LL2 F(ab′)2 conjugate of Example 9)”, in assay [3], the immunoreactivity (% of control values) turned out to be 80%.

For “cLL2Q (chimeric LL2 with the NVT to QVT mutation in VK FR1) (antibody)”, in assay [2], the rate of antibody internalization (Ke) by Raji cells is 0.122.

B1: hLL2 F(ab′)2 fragment (protein, INN chains, looked up)
VH: QVQLVQSGAEVKKPGSSVKVSCKASGYTFTSYWLHWVRQAPGQGLEWIGYINPRNDYTEYNQNFKDKATITADESTNTAYMELSSLRSEDTAFYFCARRDITTFYWGQGTTVTVSS
VL: DIQLTQSPSSLSASVGDRVTMSCKSSQSVLYSANHKNYLAWYQQKPGKAPKLLIYWASTRESGVPSRFSGSGSGTDFTFTISSLQPEDIATYYCHQYLSSWTFGGGTKLEIK
modifications: F(ab')2
As to B1, in assay [4], the Immunoreactivity, % of hLL2 amounted to 100%. Further, the ID50 in assay [5] turned out to be 0.384.
